Several values for one entry are separate records, joined by “and”; a condition that tells them apart may be missing. Equal values may be shown once.
B1: M6: alcohol dehydrogenase mutant E214G, S237C, Q136N, S196G, F161V of SEQ ID No. 2 (protein)
chain: MSVLISGASGYIAKHIVRVLLEQNYKVIGTVRSQDKADKLLKQYNNPNLSYEIVPEIANLDAFDDIFKKHGKEIKYVIHAASPVNFGAKDLEKDLVIPAINGTKNMFEAIKKYAPDTVERVVMTASYASIMTPHRNNDPTLTLDEETWNPVTEENAYENVVTAYCASKTFAEKEAWKFVKENSDAVKFKLTTIHPGFVFGPQNFDEDVTKKLNGTCEIINGLLHAPFDTKVEKTHFCQFIDVRDVAKTHVLGFQKDELINQRLLLCNGAFSQQDIVNVFNEDFPELKGQFPPEDKDTDLNKGVTGCKIDNEKTKKLLAFEFTPFHKTIHDTVYQILHKEGRV
modifications: Protein translated from synthetic DNA
B2: KpADH: wild type alcohol dehydrogenase KpADH, amino acid sequence shown in SEQ ID No. 2 (protein)
chain: MSVLISGASGYIAKHIVRVLLEQNYKVIGTVRSQDKADKLLKQYNNPNLSYEIVPEIANLDAFDDIFKKHGKEIKYVIHAASPVNFGAKDLEKDLVIPAINGTKNMFEAIKKYAPDTVERVVMTASYASIMTPHRQNDPTLTLDEETWNPVTEENAYENVFTAYCASKTFAEKEAWKFVKENSDAVKFKLTTIHPSFVFGPQNFDEDVTKKLNETCEIINGLLHAPFDTKVEKTHFSQFIDVRDVAKTHVLGFQKDELINQRLLLCNGAFSQQDIVNVFNEDFPELKGQFPPEDKDTDLNKGVTGCKIDNEKTKKLLAFEFTPFHKTIHDTVYQILHKEGRV
modifications: Protein translated from synthetic DNA

Experiments:
Type in all cases: biochemical
[1] = Substrate specificity: reduction of prochiral carbonyl compound (Table 2)
From the text: The reduction on prochiral carbonyl compounds by the alcohol dehydrogenase mutants obtained in Example 2 was studied, and the studied prochiral carbonyl compounds include (4-chlorophenyl)-(pyridin-2-yl)-methanone (CPMK), phenyl-(pyridin-2-yl)-methanone, (4-chlorophenyl)-(phenyl)-methanone, (4-bromophenyl)-(phenyl)-methanone, (4-fluorophenyl)-(pyridin-2-yl)-methanone, (4-methoxyphenyl)-(phenyl)-methanone, acetophenone, 4-chloroacetophenone and 2-(4-chlorophenyl)acetyl chloride.

[2] = 20 mL biocatalytic system: asymmetric reduction of CPMK; settings: for ee value of final reduction product: 20 mL biocatalytic system, enzyme 10 g/L, 30° C., pH 7.5; for time required to achieve a conversion rate close to 99.9%: CPMK concentration 200 mM
Protocol: (§1) In an embodiment of the present disclosure, the (R)- and (S)-CPMA is chromatographed by taking 100 μL reaction solution, adding 500 μL ethyl acetate, shaking for 1-2 min, centrifuging at 12,000 rpm for 2-5 min, placing a supernatant into a centrifuge tube, and after an organic phase is naturally volatilized completely, adding 500 μL chromatographic pure ethanol for chiral liquid chromatography of a conversion rate and an ee value. The specific chromatographic conditions are as follows: Daicel Chiralcel OB-H (5 μm, 250 mm×4.6 mm) liquid chromatography column, mobile phases are n-hexane: ethanol: ethanolamine (90:10:0.01, v/v/v), the flow rate is 1 mL/min, the column temperature is 30° C., the UV detection wavelength is 254 nm, the injection volume is 10 μL, and the retention time for (R)-CPMA and that for (S)-CPMA are 11.14 min and 12.34 min respectively.
A 20 mL biocatalytic system was established: 100 mM potassium phosphate buffer (pH 7.0), and the alcohol dehydrogenase mutants M6 and M7 obtained in Example 2 as well as wild KpADH 10 g/L, CPMK 100 mM, 200 mM and 500 mM were added (substrate added in batches). […]

[3] = Stereoselectivity analysis of CPMK reduction (chiral liquid chromatography, Table 1); settings: product CPMA from CPMK
Protocol: as §1
Method for determining optical purity ee:
As: molar concentration of (S)-CPMA obtained by liquid chromatography; and AR: molar concentration of (R)-CPMA obtained by liquid chromatography.
The activity of KpADH at different substrate concentrations and coenzyme concentrations was determined, and a double reciprocal curve was made based on the reciprocal of activity and substrate concentration to calculate kinetic parameters.

[4] = CPMK 100 mM, reaction time 12 h
[5] = CPMK 100 mM, reaction time 24 h
[6] = CPMK 200 mM, reaction time 12 h
[7] = CPMK 200 mM, reaction time 24 h
[8] = CPMK 500 mM, reaction time 12 h
[9] = CPMK 500 mM, reaction time 24 h

Row | Molecule | ee value of product ([1]; substrate drawing 2) | ee value of product ([1]; substrate drawing 3) | ee value of product ([1]; substrate drawing 5) | ee value of product ([1]; substrate drawing 7) | ee value of product ([1]; substrate drawing 8) | ee value of final reduction product [2] | Conversion rate ([2]; CPMK 100 mM, reaction time 1 h) | Conversion rate ([2]; CPMK 100 mM, reaction time 2 h) | Conversion rate ([2]; CPMK 100 mM, reaction time 3 h) | Conversion rate ([2]; CPMK 100 mM, reaction time 4 h) | Conversion rate ([2]; CPMK 100 mM, reaction time 6 h) | Conversion rate ([2]; CPMK 100 mM, reaction time 8 h) | Conversion rate [2, 4] | Conversion rate [2, 5] | Conversion rate ([2]; CPMK 200 mM, reaction time 1 h) | Conversion rate ([2]; CPMK 200 mM, reaction time 2 h) | Conversion rate ([2]; CPMK 200 mM, reaction time 3 h) | Conversion rate ([2]; CPMK 200 mM, reaction time 4 h) | Conversion rate ([2]; CPMK 200 mM, reaction time 6 h) | Conversion rate ([2]; CPMK 200 mM, reaction time 8 h) | further results
1 | B1 | 6.81% | 91.7% | 64.2% | 95.3% | 82.1% | 99.5% | 24.6% | 54.6% | 69.4% | 80.2% | 95.2% | 97.2% | 98.2% | 99.6% | 19.1% | 36.4% | 52.8% | 70.6% | 89.7% | 92.2% | Conversion rate [2, 6]: 95.4%; Conversion rate [2, 7]: 99.2%; Conversion rate ([2]; CPMK 500 mM, reaction time 1 h): 12.8%; Conversion rate ([2]; CPMK 500 mM, reaction time 2 h): 22.1%; Conversion rate ([2]; CPMK 500 mM, reaction time 3 h): 30.6%; Conversion rate ([2]; CPMK 500 mM, reaction time 4 h): 65.3%; Conversion rate ([2]; CPMK 500 mM, reaction time 6 h): 77.9%; Conversion rate ([2]; CPMK 500 mM, reaction time 8 h): 87.6%; Conversion rate [2, 8]: 90.2%; Conversion rate [2, 9]: 99.5%; time required to achieve a conversion rate close to 99.9% [2]: 24 h; ee [3]: 97.8% and 99.8%
2 | B2 | 26.3% | 71.4% | 25.3% | 59.2% | 67.1% | 82% | 47.76% | 77.9% | 87.1% | 96.5% | 98.7% | 99.6% | >99.9% | >99.9% | 25.6% | 36.9% | 50.5% | 62.8% | 85.3% | 97.4% | ee value of product ([1]; substrate drawing 1 (CPMK)): 81.9%; ee value of product ([1]; substrate drawing 4): 69.2%; ee value of product ([1]; substrate drawing 6): 14.9%; ee value of product ([1]; substrate drawing 9): 77.8%; Conversion rate [2, 6]: 99.4%; Conversion rate [2, 7]: 99.7%; Conversion rate ([2]; CPMK 500 mM, reaction time 1 h): 11.7%; Conversion rate ([2]; CPMK 500 mM, reaction time 2 h): 20.1%; Conversion rate ([2]; CPMK 500 mM, reaction time 3 h): 44.8%; Conversion rate ([2]; CPMK 500 mM, reaction time 4 h): 59.6%; Conversion rate ([2]; CPMK 500 mM, reaction time 6 h): 80.2%; Conversion rate ([2]; CPMK 500 mM, reaction time 8 h): 93.2%; Conversion rate [2, 8]: 95.6%; Conversion rate [2, 9]: 99.2%; time required to achieve a conversion rate close to 99.9% [2]: 12 h; ee [3]: 82% and 82.5%

Source: patent US10865390B2, “Alcohol dehydrogenase mutant and application thereof in synthesis of diaryl chiral alcohols” (Jiangnan University, priority 2018, dated 2020)
